Columns and labels:
[1] = target: T1, human CD39 (vascular CD39, NTPDase1) expressed at the surface of cells (human, UniProt P49961 1-510); test: flow cytometry on Ramos lymphoma cells, second set of experiments
T1 construct: also called huCD39; CHO-huCD39
T1 sequence: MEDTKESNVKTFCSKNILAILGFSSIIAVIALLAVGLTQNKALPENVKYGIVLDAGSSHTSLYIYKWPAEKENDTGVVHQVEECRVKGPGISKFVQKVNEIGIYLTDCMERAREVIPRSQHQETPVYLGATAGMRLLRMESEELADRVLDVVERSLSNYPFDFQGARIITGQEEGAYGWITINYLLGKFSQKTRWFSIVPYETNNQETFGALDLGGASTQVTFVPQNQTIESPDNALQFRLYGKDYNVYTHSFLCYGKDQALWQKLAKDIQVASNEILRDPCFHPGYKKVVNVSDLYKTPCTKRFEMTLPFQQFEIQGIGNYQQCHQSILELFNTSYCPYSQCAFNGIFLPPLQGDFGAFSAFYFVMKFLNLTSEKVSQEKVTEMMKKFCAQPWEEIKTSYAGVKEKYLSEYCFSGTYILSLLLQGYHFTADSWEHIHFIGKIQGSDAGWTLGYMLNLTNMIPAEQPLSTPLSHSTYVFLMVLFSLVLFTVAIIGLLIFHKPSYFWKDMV
Protocol: (§1) Cells were incubated with various concentration of unlabeled anti-CD39 antibody from 30 μg/ml to 5×10-⁴ μg/ml, for 30 minutes at 4° C. After washes, cells were incubated with Goat anti-mouse H+L labeled secondary antibody for 30 min at 4° C.

[2] = target: T2, recombinant human CD39-L2 (NTPDase6, ENTPD6) (human, UniProt O75354 61-484, limits assumed); test: ELISA on plate-coated recombinant huCD39 L2; the single curve has no legend on the sheet, I-394 by the legend paragraph 70
T2 construct: Genbank NP_001238 is printed
T2 sequence: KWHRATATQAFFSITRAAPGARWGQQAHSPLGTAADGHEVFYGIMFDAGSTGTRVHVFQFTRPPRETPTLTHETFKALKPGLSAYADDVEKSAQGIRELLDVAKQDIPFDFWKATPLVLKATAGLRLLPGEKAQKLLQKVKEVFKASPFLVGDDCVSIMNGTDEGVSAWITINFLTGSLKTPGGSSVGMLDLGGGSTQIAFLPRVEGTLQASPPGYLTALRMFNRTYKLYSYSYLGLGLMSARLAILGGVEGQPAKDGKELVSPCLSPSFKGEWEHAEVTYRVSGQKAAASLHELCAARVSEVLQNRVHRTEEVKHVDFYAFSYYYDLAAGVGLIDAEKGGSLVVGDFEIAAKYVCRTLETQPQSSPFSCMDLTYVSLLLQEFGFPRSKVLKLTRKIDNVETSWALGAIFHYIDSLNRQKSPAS
Protocol: Wells were washed in TBS Tween 20, and further saturated 2H at RT in TBS Blocking buffer. Dose range concentration of primary antibody was incubated in TBS blocking buffer for 2 h at RT. Wells were washed in TBS Tween 20. […] Optical density was measured on Enspire™ at OD=450.

[3] = target: T3, human CD39 mutant 19 (human, UniProt P49961 1-510); test: flow cytometry on Hek-293T cells expressing CD39 mutant 19 (panel M19); unstained (US) median 8,98; antibody concentration not shown
T3 construct: Expressed on Hek-293T cells; also called M19
T3 chain: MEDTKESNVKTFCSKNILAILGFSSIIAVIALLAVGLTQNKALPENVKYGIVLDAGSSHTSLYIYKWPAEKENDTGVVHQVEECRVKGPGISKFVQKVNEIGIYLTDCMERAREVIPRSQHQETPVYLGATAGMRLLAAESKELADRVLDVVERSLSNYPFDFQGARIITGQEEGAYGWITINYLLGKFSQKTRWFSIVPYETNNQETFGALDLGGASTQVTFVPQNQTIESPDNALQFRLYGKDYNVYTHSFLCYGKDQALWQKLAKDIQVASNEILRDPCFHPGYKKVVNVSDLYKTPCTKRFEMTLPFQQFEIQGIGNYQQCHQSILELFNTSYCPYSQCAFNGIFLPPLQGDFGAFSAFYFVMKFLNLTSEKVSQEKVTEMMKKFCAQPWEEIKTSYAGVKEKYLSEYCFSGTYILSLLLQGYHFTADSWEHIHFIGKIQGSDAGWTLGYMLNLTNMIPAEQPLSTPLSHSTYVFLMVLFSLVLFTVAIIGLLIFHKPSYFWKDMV
Protocol: (§2) Mutants were transfected in Hek-293T cells, as shown in the table 1, using numbering of SEQ ID NO: 1. […] Mutant 19 includes substitutions at residues R138, M139 and E142.
(§3) In order to define the epitopes of the further anti-CD39 antibodies of Example 5, they were tested for loss of binding to the panel of CD39 mutants as described in Example 1 and Table 1. Mutants were transfected in Hek-293T cells, as shown in the table 1, using numbering of SEQ ID NO: 1.Dose-ranges of test antibodies (10-2.5-0.625-0.1563-0.0391-0.0098-0.0024-0.0006 μg/ml) are tested on the 20 generated mutants by flow cytometry.

[4] = target: T3, human CD39 mutant 19; test: flow cytometry on Hek-293T cells expressing CD39 mutant 19 (panel M19)
Protocol: as §2, §3

[5] = target: T4, cynomolgus (Macaca fascicularis) CD39 expressed on CHO cells (cynomolgus (Macaca fascicularis), UniProt A0A7N9DGH8 1-510); test: flow cytometry titration on CHO-cyCD39 cells
T4 construct: whole, on cells; also called CHO-cyCD39; cyCD39
T4 sequence: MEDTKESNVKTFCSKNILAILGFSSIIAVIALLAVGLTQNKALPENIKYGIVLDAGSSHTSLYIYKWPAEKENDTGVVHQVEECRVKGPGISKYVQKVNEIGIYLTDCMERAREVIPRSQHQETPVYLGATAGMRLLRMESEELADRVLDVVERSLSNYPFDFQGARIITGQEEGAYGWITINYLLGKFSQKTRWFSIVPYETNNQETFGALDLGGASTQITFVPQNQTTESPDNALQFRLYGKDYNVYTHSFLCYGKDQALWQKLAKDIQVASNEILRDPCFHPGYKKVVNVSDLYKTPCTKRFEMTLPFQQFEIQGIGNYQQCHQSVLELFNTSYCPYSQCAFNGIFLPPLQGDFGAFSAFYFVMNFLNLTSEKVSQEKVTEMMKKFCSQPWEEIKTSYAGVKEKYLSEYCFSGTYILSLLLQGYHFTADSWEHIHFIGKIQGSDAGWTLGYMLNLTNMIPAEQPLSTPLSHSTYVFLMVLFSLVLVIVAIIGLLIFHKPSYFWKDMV
Protocol: as §1

EC50 [1]: 0.19 µg/mL
binding result [2]: no binding (tested: about 50 µg/ml)
Median : Comp-Alexa Fluor 647-A [3]: 24.4
binding result [4]: no binding
EC50 (read off the curve) [5]: ~0.4 µg/mL
B1: antibody I-394 (antibody, V domains shown)
VH: EVQLQQSGPELVKPGASVKMSCKASGYTFTDYNMHWVKQSHGRTLEWIGYIVPLNGGSTFNQKFKGRATLTVNTSSRTAYMELRSLTSEDSAAYYCARGGTRFAYWGQGTLVTVSA
VL: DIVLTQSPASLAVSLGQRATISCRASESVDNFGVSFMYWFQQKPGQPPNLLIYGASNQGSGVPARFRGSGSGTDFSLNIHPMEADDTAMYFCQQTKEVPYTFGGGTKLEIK
notes: Mouse variable regions; Produced in CHO with human IgG1 constant domains carrying L234A/L235E/G237A/A330S/P331S (Kabat EU numbering) and a human Ck constant domain
